In this assay the target is purified bovine arrestin3 (bovine, UniProt P32120 1-420). Nature of the assay: pull-down.
Sequence of purified bovine arrestin3 (P32120 whole entry): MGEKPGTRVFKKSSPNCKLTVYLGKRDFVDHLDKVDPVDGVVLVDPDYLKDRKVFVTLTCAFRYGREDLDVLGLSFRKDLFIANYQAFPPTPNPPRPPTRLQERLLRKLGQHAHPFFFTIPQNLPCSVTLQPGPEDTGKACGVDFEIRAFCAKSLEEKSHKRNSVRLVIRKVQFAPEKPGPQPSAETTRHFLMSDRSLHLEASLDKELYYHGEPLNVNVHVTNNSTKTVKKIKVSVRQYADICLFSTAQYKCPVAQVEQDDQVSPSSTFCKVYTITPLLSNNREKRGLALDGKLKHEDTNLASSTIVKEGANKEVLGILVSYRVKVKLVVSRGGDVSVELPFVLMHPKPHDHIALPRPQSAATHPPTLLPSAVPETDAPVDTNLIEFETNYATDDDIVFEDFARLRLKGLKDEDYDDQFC

Consider SIDRYTAVVMPVHYQHGTGQSSCRRVA (domain or fragment, rat, UniProt P19020 125-151, looked up) [GST-D3-IC2], for which the Kd (as a rule, the concentration at which binding is half-saturated) was 1100 nM. As for SIDRYTAVAMPMLYNTRYSSKRRVT (domain or fragment, rat, UniProt P61169 129-153, looked up) [GST-D2-IC2], the figure is 242 nM.
